Assay results: patent US20070122429A1 (published 2007)

B1: MBP1-C37 (other)
chain: SSSGGGSGGGSGGGSSSSGGHTTWMEWDREINNYTSLIHSLIEESQNQQEKNEQELLHHHHHH
notes: domain: C-peptide (C37)
B2: MBP2-C37 (other)
chain: SSSGGGSGGGSGGGSSGGGSGGGSGGGSSSSGGHTTWMEWDREINNYTSLIHSLIEESQNQQEKNEQELLHHHHHH
notes: domain: C-peptide (C37)

Key:
[1] = target: HIV-1 HXB2 Env (gp41 N-trimer region) (HIV-1 HXB2, UniProt P04578 33-856); assay: cell-based or functional assay
[2] = target: HIV-1 JRFL Env (gp41 N-trimer region) (HIV-1 JRFL); assay: cell-based or functional assay
[3] = target: T1, IZN36 (biotinylated Cys-Gly-Gly-Asp-IZN36, His tag removed); assay: SPR, immobilised IZN36; compared with MBP-C37
T1 construct: also called biotinylated IZN36

Binder	IC50, viral infectivity HXB2 [1] [nM]	IC50, viral infectivity JRFL [2] [nM]	KD difference from MBP-C37 [3] [%]	IC50, cell-cell fusion (HXB2 Env) [1] [nM]	IC50 ratio (cell-cell fusion), relative to C37 [1]	IC50 ratio HXB2 (viral infectivity), relative to C37 [1]	IC50 ratio JRFL (viral infectivity), relative to C37 [2]
B1	88.9	640	< 20	–	–	–	–
SSSSSGGHTTWMEWDREINNYTSLIHSLIEESQNQQEKNEQELLHHHHHH (other) [MBP-C37]	206	1870	–	192	225	74.8	228
B2	79.2	516	< 20	–	–	–	–
